Patent US20240252474A1, “METHODS AND COMPOSITIONS COMPRISING A CARDIO-TOLERATED HDAC INHIBITOR” (HUYABIO International, LLC, priority 2023, published 2024)

Assay: Phase 1b safety and tolerability of HBI-8000 combined with nivolumab (DLTs, TEAEs)
Type: in vivo
Procedure: The present example, was a Phase Ib/2 open-label dose finding study for HBI-8000 (also referred to in the art as “chidamide” or “tucidinostat” and also referred to herein as a compound of formula I) in combination with nivolumab in patients with advanced solid tumors, including melanoma, RCC (renal cell carcinoma), and NSCLC (non-small cell lung cancer). This study was conducted in accordance with Good Clinical Practice guidelines and the Declaration of Helsinki and with assurance/approval from the US Department of Health and Human Services; the protocol was approved by the institutional review boards or ethics committees of all participating sites. All patients provided written informed consent to participate before enrollment. […]
HBI-8000 at three dose levels (20 mg, 30 mg, and 40 mg) given orally twice a week (BIW) were evaluated. Doses were taken approximate 30 minutes after a meal. The starting dose (20 mg) was selected based on pharmacokinetic profiles established for monotherapy in Japanese patients with T-cell lymphoma.
The decision to escalate the dose was based on the conventional 3+3 design and observed incidences of dose-limiting toxicities (DLTs). Each treatment cycle was defined as 28 days. […] Subjects experiencing DLT within the first two weeks after having received 100% of assigned dose of HBI-8000 are also evaluable for DLT. Unacceptable toxicities were defined as grade 3 or higher non-hematologic and hematologic toxicities with clinical complications. Unacceptable toxicities observed over the first 28 days following HBI-8000 administration were considered as DLTs. […] HBI-8000 administration continued until disease progression or unacceptable toxicity was observed. The efficacy of the combination was further evaluated in an expanded cohort of selected patient populations at RP2D based on an objective response rate according to Response Evaluation Criteria in Solid Tumors (RECIST) version 1.1 criteria, progression-free survival, and duration of responses.
Safety evaluations included physical examinations, vital signs, ECGs, ECOG performance status, and laboratory tests.
Statistical analyses of safety, tolerability, and anti-tumor activity were primarily descriptive in nature. Toxicities were tabulated by type and grade. The safety population included all patients who received ≥1 dose of HBI-8000 and nivolumab. Continuous variables were summarized using descriptive statistics and categorical variables were summarized with number and percentage at each category. Pharmacokinetic parameters were derived using noncompartmental methods with Phoenix® WinNonlin® Version 6.4 (Certara, L. P., Princeton, NJ, USA).

[1] = 20 mg HBI-8000 BIW + nivolumab, N = 3
[2] = 30 mg HBI-8000 BIW + nivolumab, N = 7
[3] = 40 mg HBI-8000 BIW + nivolumab, N = 7

Nivolumab: fully human monoclonal antibody directed against PD-1 (marketed as OPDIVO) [reference compound]
Diarrhoea, Related Nivo, Any G [1]: 1 (33) n (%)
SAE related to Nivolumab alone, number of subjects [1]: 1 n
TEAE related to Nivolumab alone, number of subjects [1]: 2 n
TEAE resulting in discontinuation of Nivo alone, number of subjects [1]: 1 n
Weight decreased, Related Nivo, Any G [1]: 1 (33) n (%)
Back pain, Related Nivo, Any G [2]: 2 (29) n (%)
Dyspnoea, Related Nivo, Any G [2]: 1 (14) n (%)
Fall, Related Nivo, Any G [2]: 1 (14) n (%)
Hypoxia, Related Nivo, Any G [2]: 1 (14) n (%)
Lipase increased, Related Nivo, Any G [2]: 1 (14) n (%)
SAE related to Nivolumab alone, number of subjects [2]: 2 n
TEAE related to Nivolumab alone, number of subjects [2]: 6 n
TEAE resulting in discontinuation of Nivo alone, number of subjects [2]: 4 n
Diarrhoea, Related Nivo, Any G [3]: 1 (14) n (%)
SAE related to Nivolumab alone, number of subjects [3]: 1 n
TEAE related to Nivolumab alone, number of subjects [3]: 2 n
TEAE resulting in discontinuation of Nivo alone, number of subjects [3]: 2 n
SAE related to Nivolumab alone, number of subjects (Total, all dose levels, N = 17): 4 n
TEAE related to Nivolumab alone, number of subjects (Total, all dose levels, N = 17): 10 n
TEAE resulting in discontinuation of Nivo alone, number of subjects (Total, all dose levels, N = 17): 7 n
